Results from article PMC10716131 (2023).

Columns and labels:
[1] = target: T1, DDB1:CRBN complex, full-length human CRBN (residues 1–442) with N-terminal biotinylated Avi-tag, co-expressed … (human, UniProt Q96SW2 1-442; Q16531 1-1140, biotin on the Avi-tag (BirA, 100% efficiency)); test: SPR; CC-220
[2] = target: T1, DDB1:CRBN complex, full-length human …; test: SPR; pomalidomide
[3] = target: T1, DDB1:CRBN complex, full-length human …; test: SPR; CC-220; remark: listed apart in the source
[4] = target: T1, DDB1:CRBN complex, full-length human …; test: SPR; pomalidomide 5 uM
[5] = target: T1, DDB1:CRBN complex, full-length human …; test: SPR; pomalidomide; remark: listed apart in the source
[6] = target: T1, DDB1:CRBN complex, full-length human …; test: SPR; CC-220 5 uM

T1 sequence (Q96SW2 whole entry, chain 1 of 2, the tested form may be a part): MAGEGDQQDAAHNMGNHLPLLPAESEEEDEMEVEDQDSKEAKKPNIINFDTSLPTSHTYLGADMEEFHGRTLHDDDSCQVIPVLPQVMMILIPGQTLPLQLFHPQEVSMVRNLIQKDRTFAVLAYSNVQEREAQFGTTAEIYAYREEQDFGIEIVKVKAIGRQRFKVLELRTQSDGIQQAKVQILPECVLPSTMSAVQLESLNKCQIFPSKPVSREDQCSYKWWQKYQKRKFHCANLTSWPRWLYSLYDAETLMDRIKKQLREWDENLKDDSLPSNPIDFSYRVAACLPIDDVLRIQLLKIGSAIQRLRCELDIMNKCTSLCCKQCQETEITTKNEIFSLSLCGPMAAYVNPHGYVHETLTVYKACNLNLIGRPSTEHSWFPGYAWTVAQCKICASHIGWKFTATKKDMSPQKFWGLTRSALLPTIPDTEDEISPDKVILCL
T1 sequence (Q16531 whole entry, chain 2 of 2, the tested form may be a part): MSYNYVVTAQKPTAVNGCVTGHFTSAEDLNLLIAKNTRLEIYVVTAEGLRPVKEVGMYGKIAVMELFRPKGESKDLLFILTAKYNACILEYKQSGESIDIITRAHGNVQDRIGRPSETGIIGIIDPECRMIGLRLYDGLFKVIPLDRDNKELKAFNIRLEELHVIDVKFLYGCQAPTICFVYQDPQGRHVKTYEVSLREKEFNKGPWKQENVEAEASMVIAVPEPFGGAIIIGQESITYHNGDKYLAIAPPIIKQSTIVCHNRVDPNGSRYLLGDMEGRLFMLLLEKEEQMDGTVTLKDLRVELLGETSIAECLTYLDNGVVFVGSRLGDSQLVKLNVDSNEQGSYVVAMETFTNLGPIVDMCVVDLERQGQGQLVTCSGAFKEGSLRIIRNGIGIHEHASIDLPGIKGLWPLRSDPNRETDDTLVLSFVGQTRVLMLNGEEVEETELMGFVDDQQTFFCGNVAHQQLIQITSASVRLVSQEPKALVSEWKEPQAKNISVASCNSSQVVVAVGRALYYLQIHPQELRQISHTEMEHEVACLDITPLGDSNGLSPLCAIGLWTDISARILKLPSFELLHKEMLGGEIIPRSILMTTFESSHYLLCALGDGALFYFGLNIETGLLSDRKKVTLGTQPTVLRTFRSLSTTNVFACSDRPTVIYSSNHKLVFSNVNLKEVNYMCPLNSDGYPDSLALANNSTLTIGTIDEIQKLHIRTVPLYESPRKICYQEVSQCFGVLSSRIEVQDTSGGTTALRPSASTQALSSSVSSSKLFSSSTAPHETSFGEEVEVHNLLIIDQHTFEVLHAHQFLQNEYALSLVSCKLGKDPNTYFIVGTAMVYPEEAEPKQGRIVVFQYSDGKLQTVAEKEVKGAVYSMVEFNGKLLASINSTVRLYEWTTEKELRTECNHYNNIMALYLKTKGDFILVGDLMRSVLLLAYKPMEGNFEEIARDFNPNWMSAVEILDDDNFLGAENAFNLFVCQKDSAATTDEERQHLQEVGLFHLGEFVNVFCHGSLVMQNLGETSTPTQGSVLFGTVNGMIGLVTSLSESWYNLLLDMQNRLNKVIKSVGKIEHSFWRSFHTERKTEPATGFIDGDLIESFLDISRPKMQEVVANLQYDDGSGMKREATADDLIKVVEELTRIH

B1: Human SALL4 ZF1-2(370–454) (domain or fragment)
chain: DVKPKDEAALYKHKCKYCSKVFGTDSSLQIHLRSHTGERPFVCSVCGHRFTTKGNLKVHFHRHPQVKANPQLFAEFQDKVAAGNG
- koff [1]: 0.042 s⁻¹
- koff [2]: 0.015 s⁻¹
- Kd [3]: 0.28 µM
- Kd [4]: 0.06 µM
- Kd [5]: 0.06 µM
- Kd [6]: 0.31 µM

Binder: TGERPFVCSVCGHRFTTKGNLKVHFHRHPQVKANPQLFAEFQDKVAAGNG (domain or fragment) [Human SALL4 ZF2(405–454)]
- Kd [4]: 0.7 µM
- Kd [6]: 2.1 µM

B2: Human SALL4 ZF1-2(379–432) (domain or fragment)
chain: LYKHKCKYCSKVFGTDSSLQIHLRSHTGERPFVCSVCGHRFTTKGNLKVHFHRH
- koff [1]: 0.34 s⁻¹
- koff [2]: 0.26 s⁻¹
- Kd [3]: 150 µM
- Kd [5]: 2.1 µM

Binder: TGERPFVCSVCGHRFTTKGNLKVHFHRHPQVKA (domain or fragment) [Human SALL4 ZF2(405–437)]
- Kd [6]: 4 µM

B3: Human SALL4 ZF2(405–432) (domain or fragment)
chain: not shown
- Kd [4]: 67.1 µM
